Laboratory results reported in patent publication US20240390512A1, “METHODS OF TREATING CHEMOTHERAPY-RESISTANT CANCER WITH AN ANTIBODY-DRUG CONJUGATE” (DAIICHI SANKYO COMPANY, LIMITED, priority 2021, published 2024).
Numbering of substitutions follows the chain as printed.

T1: human CDH6 (full-length and EC domain deletion mutants) (Homo sapiens, UniProt P55285, DEL384-486)
T1 construct: each one of the five EC domains could be deleted from full-length human CDH6; 3xFLAG (deletion mutants only, from the vector p3×FLAG-CMV-9); expressed in transfected cells; host or cells: 293α cells
T1 sequence (P55285 with tags, fused parts or gaps DEL384-486): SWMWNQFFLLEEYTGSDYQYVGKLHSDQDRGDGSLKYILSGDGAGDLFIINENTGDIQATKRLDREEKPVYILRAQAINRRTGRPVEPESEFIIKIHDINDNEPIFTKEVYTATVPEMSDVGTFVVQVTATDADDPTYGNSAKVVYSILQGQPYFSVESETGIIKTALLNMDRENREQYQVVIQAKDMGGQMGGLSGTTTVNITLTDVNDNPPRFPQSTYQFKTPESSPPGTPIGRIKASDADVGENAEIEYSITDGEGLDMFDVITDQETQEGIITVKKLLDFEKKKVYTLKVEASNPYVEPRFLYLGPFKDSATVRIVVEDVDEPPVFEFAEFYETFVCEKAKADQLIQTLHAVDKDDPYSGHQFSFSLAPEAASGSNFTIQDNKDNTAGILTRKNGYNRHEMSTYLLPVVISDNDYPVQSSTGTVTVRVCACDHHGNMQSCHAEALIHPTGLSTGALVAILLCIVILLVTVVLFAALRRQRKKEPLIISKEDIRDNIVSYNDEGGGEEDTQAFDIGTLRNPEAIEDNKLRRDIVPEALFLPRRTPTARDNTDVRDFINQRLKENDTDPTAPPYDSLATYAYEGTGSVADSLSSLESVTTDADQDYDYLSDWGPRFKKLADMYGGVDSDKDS

T2: human CDH6 (full-length and EC domain deletion mutants) (Homo sapiens, UniProt P55285, DEL487-608)
T2 construct: each one of the five EC domains could be deleted from full-length human CDH6; 3xFLAG (deletion mutants only, from the vector p3×FLAG-CMV-9); expressed in transfected cells; host or cells: 293α cells
T2 sequence (P55285 with tags, fused parts or gaps DEL487-608): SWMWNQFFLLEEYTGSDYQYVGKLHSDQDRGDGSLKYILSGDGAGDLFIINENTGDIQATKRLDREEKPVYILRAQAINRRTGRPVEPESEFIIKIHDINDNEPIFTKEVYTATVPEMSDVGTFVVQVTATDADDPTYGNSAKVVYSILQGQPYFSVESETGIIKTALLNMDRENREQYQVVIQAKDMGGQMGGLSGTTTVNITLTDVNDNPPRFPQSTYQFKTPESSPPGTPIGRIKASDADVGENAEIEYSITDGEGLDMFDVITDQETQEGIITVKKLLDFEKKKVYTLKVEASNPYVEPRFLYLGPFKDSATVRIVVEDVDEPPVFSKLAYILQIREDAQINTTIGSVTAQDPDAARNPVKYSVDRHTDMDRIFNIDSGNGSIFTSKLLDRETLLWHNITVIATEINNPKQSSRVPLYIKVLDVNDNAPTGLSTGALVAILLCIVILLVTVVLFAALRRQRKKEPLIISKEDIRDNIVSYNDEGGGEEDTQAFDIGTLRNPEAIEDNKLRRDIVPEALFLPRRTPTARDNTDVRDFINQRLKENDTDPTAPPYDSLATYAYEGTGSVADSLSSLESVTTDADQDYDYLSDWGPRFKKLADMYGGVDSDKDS

B1: rG055: rat anti-human CDH6 monoclonal antibody produced by hybridoma rG055; variable regions SEQ ID NO: 20 and 25 (antibody, listed as Rattus norvegicus, V domains shown)
VL: DVQMTHSPSYLAASPGESVSISCKTSKNISNYLVWYQQKPGEAYKLLIYSGSTLQSGTPSRFSGSGSGTDFTLTIRSLEPEDFGLYFCQQYYEKPFTFGSGTKLEIKRA
VH: EVQLQESGPGLVRPSQSLSLSCSVTDYSITSNYWGWIRRFPGNKMEWMGYITYSGYTSYNPSLQSRISITRDTSKNQFFLQLNSVTAEDTATYYCARSINHGGYSYVVDAWGPGASVTVSS
B2: rG061: rat anti-human CDH6 monoclonal antibody produced by hybridoma rG061; variable regions SEQ ID NO: 40 and 45 (antibody, listed as Rattus norvegicus, V domains shown)
VL: B1 VL with H6Q, T25A, S26T, N28S, V34A, L46V, F87S, F96L
VH: EVQLQESGPGLVKPSQSLSLTCSVTGYSITTYYWGWIRKFPGNKMEWMGYISYSGRTSYNPSLKSRMSITRDASKNQFFLQLNSVTTDDTATYYCARSPINHGGYWYFDFWGPGTMVTVSS
B3: rG056: rat anti-human CDH6 monoclonal antibody produced by hybridoma rG056; variable regions SEQ ID NO: 30 and 35 (antibody, listed as Rattus norvegicus, V domains shown)
VL: DVQMTQSPSSLAASPGESVSISCRATKSIGIYLAWYQQKPGKTFKLLIYSGSTLQSGTPSRFSGSGSGTDFTLTIRSLEPEDFGLYFCQQFYENPFTFGSGTKLEIRRA
VH: EVQLQESGPGLVKPSQSLSLTCSVTDYSITTYFWGWIRKFPGNKMEWMGYMSYRGGTSYNPSLKSRISITRDTSKNQFFLQLNSVTTEDTATYYCARCPNYGGHSLVFDYWGQGVMVTVSS
B4: rG019: rat anti-human CDH6 monoclonal antibody produced by hybridoma rG019; variable regions SEQ ID NO: 10 and 15 (antibody, listed as Rattus norvegicus, V domains shown)
VL: DIQMTQSPSLLSASVGDRVTLNCKASQNIYKNLAWYQQKLGEGPKLLIYDANTLQTGIPSRFSGSGSGSDFTLTISSLQPEDVATYFCQQYYSGWAFGGVTNLELKRA
VH: QVQLQQSGAELVKPGSSVKISCKASGYTFTRNFMHWIKQQPGNGLEWIGWIYCGDGETEYNQKFNGKATLTADRSSSTAYMELSRLTSEDSAVYFCARGVYGGFAGGYFDFWGQGVMVTVSS

These molecules were tested against T1, human CDH6 (full-length and EC domain deletion mutants) (assay: Epitope analysis of rat anti-CDH6 antibody by flow cytometry using domain deletion mutants). Conditions: flow cytometry; transfected 293α cells; antibody 20 nM.
Assay type: binding
Excerpt: (§1) The full-length extracellular region of human CDH6 has five extracellular domains, EC1 (SEQ ID NO: 2), EC2 (SEQ ID NO: 3), EC3 (SEQ ID NO: 4), EC4 (SEQ ID NO: 5), and EC5 (SEQ ID NO: 6). A gene to be expressed such that each one of the five EC domains could be deleted from full-length human CDH6 was synthesized by GeneArt, and incorporated into p3×FLAG-CMV-9 vectors for mammalian expression (Sigma-Aldrich Co. LLC) according to a method known to a person skilled in the art in order to produce an expression vector for each domain deletion mutant lacking any one of EC1 to EC5.
(§2) The epitopes to which the rat anti-human CDH6 antibodies bound were identified by flow cytometry analysis using a 293α cell line transfected with each EC domain deletion vector. Using Lipofectamine 2000 (Thermo Fisher Scientific Inc.), each domain deletion mutant expression vector produced in Reference Example 2)-2-1, or pcDNA3.1-hCDH6 for the expression of full-length human CDH6 was transiently introduced into a 293α cell line, which was a cell line derived from HEK293 cells by stable transfection with integrin αv and integrin […] expression vectors. The cells were cultured overnight under conditions of 37° C. and 5% CO2, and thereafter, a cell suspension was prepared. The suspension of the transfected 293α cells was centrifuged, and a supernatant was then removed. Thereafter, the cells were suspended by the addition of each of the 4 rat anti-CDH6 monoclonal antibodies (clone Nos: rG019, rG055, rG056 and rG061), which had been prepared in Reference Example 1)-7, or rat IgG control (R&D Systems, Inc.) (final concentration: 20 nM). The cells were left standing at 4° C. for 1 hour. The cells were washed twice with PBS supplemented with 5% FBS, and then suspended by the addition of Anti-Rat IgG (whole molecule)-FITC antibody produced in rabbit (Sigma-Aldrich Co. LLC) that had been 50-fold diluted with PBS supplemented with 5% FBS. The cells were left standing at 4° C. for 1 hour. The cells were washed twice with PBS supplemented with 5% FBS, followed by detection using a flow cytometer (Canto II; BD Biosciences). The data was analyzed using FlowJo (Tree Star, Inc.). In the histograms of FIGS. 2-1 to 2-6, the abscissa depicts FITC fluorescence intensity indicating the amount of the antibody bound, and the ordinate depicts cell count. […] Fluorescence intensity is enhanced when the antibody binds to full-length hCDH6 or each EC domain deletion mutant on the surface of cells. The rat IgG control binds to none of the transfected cells.

Binding to EC4 deletion mutant, bind:
B1
B2
B3
B4

These molecules were tested against T2, human CDH6 (full-length and EC domain deletion mutants) in the same assay as above. Conditions: flow cytometry; transfected 293α cells; antibody 20 nM.
Assay type: binding
Excerpt: as §1, §2

Binding to EC5 deletion mutant, bind:
B1
B2
B3
B4
